Patent US20170218055A1 (UNIVERSITY OF CHICAGO, published 2017)

T1: peptide H3 (helix 3 of the EKKAA IgBD)
T1 construct: Synthetic linear peptide
T1 peptide: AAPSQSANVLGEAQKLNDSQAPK

T2: peptide H1 (helix 1 of the EKKAA IgBD)
T2 construct: Synthetic linear peptide, free NH2 and COOH ends as printed
T2 peptide: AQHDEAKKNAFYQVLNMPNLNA

T3: peptide H2 (helix 2 of the EKKAA IgBD)
T3 construct: Synthetic linear peptide
T3 peptide: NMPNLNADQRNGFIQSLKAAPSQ

B1: mAb 5A10 (antibody, V domains shown)
VH: EVKLVESGGGLVKPGGSLKLSCAASGFAFSNYDMSWVRQTPEKRLEWVATISSGGTYPYYPDSVKGRFTISRDNAKNTLYLQLSSLRSEDTALYYCARGGFLITTRDYYAMDYWGQGTSVTVSS
VL: TIVLTQSPAIMSASPGEKVTMTCSASSSVSYMYWYQQKPGSSPRLLIYDTSNLASGVPVRFSGSGSGTSYSLTISRMEAEDAATYYCQQWSSYPPTFGGGTKLEIK
notes: Mouse IgG1 hybridoma mAb raised against SpAKKAA; also called 5A10-HRP; HRP-5A10
B2: mAb 2F2 (antibody, V domains shown)
VH: VKLVESGGDLVKPGGSLKLSCAASRFTFSSYVMSWVRQTPEKRLEWVASIGSGGTTYYPDTVKGRFTISRDNARNILYLQMSSLRSDDTAMYYCTRGRGYGFAWYFDVWGAGTTVTVSS
VL: TIVLTQSPAIMSASPGEKVTMTCSASSSVSYMYWYQQKPGSSPRLLIYDTSNLASGVPVRFSGSGSGTSYSLTISRMEAEDAATYYCQQWSSYPPTFGGGTKLEIK
notes: Mouse IgG2b hybridoma mAb
B3: mAb 3A6 (antibody, V domains shown)
VH: QIQLVQSGPELKKPGETVKISCKASGYNFTDYSMHWVKQAPGKGLKWVGWINTETAESTYADDFKGRFAFSLETSASTAYLQINSLKDEDTATFFCAHFDCWGQGTTLTVSS
VL: DVVMTQISLSLPVTLGDQASISCRASQSLVHSNGNTYLNWYLQKPGQSPKLLIHKVSNRFSGVPDRFSGSGSGTDFTLKISRVEAEDLGVYFCSQITYVPWTFGGGTKLEIK
notes: Mouse IgG1 hybridoma mAb
B4: mAb 6D11 (antibody, V domains shown)
VH: QVQLQQSGAELVRPGTSVKVSCKASGNAFTNYLIEWIKQRPGQGLEWIGVINPGSGITNYNEKFKGKATLTADKSSNTAYMQLSSLSSDDSAVYFCSGSANWFAYWGQGTLVTVSA
VL: DIVLTQSPASLAVSLGQRASISCRASESVEYSGASLMQWYQHKPGQPPKLLIYAASNVESGVPVRFSGSGSGTDFSLNIHPVEEDDIAMYFCQQSRKVPSTFGGGTKLEIK
notes: Mouse IgG2a hybridoma mAb
B5: mAb 3D11 (antibody, V domains shown)
VH: QSGPELMKPGASVKISCKASGYSFTSYYMHWVKQSHGKSLEWIGYIDPFNGGTSYNQKFKGKATLTVDKSSSTAYMHLSSLTSEDSAVYYCARYGYDGTFYAMDYWGQGTSVTVSS
VL: RIVLTQSPAITAASLGQKVTITCSASSSVSYMHWYQQKSGTSPKPWIYEISKLASGVPARFSGSGSGTSYSLTISSMEAEDAAIYYCQQWSYPFTFGSGTKLEIK
notes: Mouse IgG2b hybridoma mAb raised against SpAKKAA; also called 3D11-HRP; HRP-3D11
B6: mAb 7E2 (antibody, V domains shown)
VH: QIQLVQSGPELKKPGETVKISCKASGYTFTDYSVHWVKQAPGKGLKWMAWINTATGEPTFADDFKGRFAFSLETSARTAYLQINNLKNEDTATYFCAPQLTGPFAYWGHGTLVTVSA
VL: DIQMTQSPASLSASVGETVTITCRASENIHNYLAWYQQKQGKSPQLLVYNAKTLTDGVPSRFSGSGSGTQFSLKINSLQAGDFGSYYCQHSWSIPYTFGGGTRLQIR
notes: Mouse IgG1 hybridoma mAb
B7: mAb 8E2 (antibody, V domains shown)
VH: KVQLQQSGAGLVKPGASVKLSCKASGYTFTEYSIHWVKQSSGQGLEWIGWFYPGSGYIKYNEKFKDKATLTADKSSSTVYMEFSRLTSEDSAVYFCARHGYGNYVGYAMDYWGQGTSVTVSS
VL: DIQMTQSPASLSASVGETVTITCRASEIIYSYLAWYQQKQGKSPQLLVYFAKTLAEGVPSRFSGSGSGTQFSLKINSLQPEDFGIYYCQHHYGTPYTFGGGTKLEIK
notes: Mouse IgG1 hybridoma mAb

Tests used:
[1] = target: T4, SpAKKAA (non-toxigenic staphylococcal protein A variant) (Staphylococcus aureus, UniProt A0A0H3K686 37-327); assay: ELISA, antigen-coated plate, mAb titrated
T4 construct: The four substitutions are made in each of the five domains (20 in all); Purified from E. coli; also called non-toxigenic protein A

[2] = target: T5, DKKAA immunoglobulin binding domain of SpAKKAA (Staphylococcus aureus, UniProt A0A0H3K686 96-149); assay: ELISA, antigen-coated plate, mAb titrated
T5 construct: the construct is said to span residues 57-117 of mature SpA (61 residues), so its limits differ from the entry; not shown: N-terminal six histidyl tag (pET15b)

[3] = target: T6, CKKAA immunoglobulin binding domain of SpAKKAA (Staphylococcus aureus, UniProt A0A0H3K686 214-323); assay: ELISA, antigen-coated plate, mAb titrated
T6 construct: the construct is said to span residues 234-291 of mature SpA and its limits may differ from the entry; not shown: N-terminal six histidyl tag (pET15b)

[4] = target: T7, AKKAA immunoglobulin binding domain of SpAKKAA (Staphylococcus aureus, UniProt A0A0H3K686 156-207); assay: ELISA, antigen-coated plate, mAb titrated
T7 construct: the construct is said to span residues 118-175 of mature SpA and its limits may differ from the entry; not shown: N-terminal six histidyl tag (pET15b)

[5] = target: T8, EKKAA immunoglobulin binding domain of SpAKKAA (Staphylococcus aureus, UniProt A0A0H3K686 37-92); assay: ELISA, antigen-coated plate, mAb titrated
T8 construct: also called SpA-EKKAA; E domain; not shown: N-terminal six histidyl tag (pET15b)

[6] = target: T9, BKKAA immunoglobulin binding domain of SpAKKAA (Staphylococcus aureus, UniProt A0A0H3K686 214-265); assay: ELISA, antigen-coated plate, mAb titrated
T9 construct: not shown: N-terminal six histidyl tag (pET15b)

[7] = target: T1, peptide H3 (helix 3 of the EKKAA IgBD); assay: ELISA, antigen-coated plate, mAb titrated
[8] = target: T10, peptide H1+2 (helices 1+2 of the EKKAA IgBD); assay: ELISA, antigen-coated plate, mAb titrated
T10 construct: Synthetic linear peptide; also called helix 1+2 peptide

[9] = target: T2, peptide H1 (helix 1 of the EKKAA IgBD); assay: ELISA, antigen-coated plate, mAb titrated
[10] = target: T3, peptide H2 (helix 2 of the EKKAA IgBD); assay: ELISA, antigen-coated plate, mAb titrated
[11] = target: T8, EKKAA immunoglobulin binding domain of …; assay: ELISA, antigen-coated plate

Binder | Ka [1] [M⁻¹] | Ka [2] [M⁻¹] | Ka [3] [M⁻¹] | Ka [4] [M⁻¹] | Ka [5] [M⁻¹] | Ka [6] [M⁻¹] | Ka [7] [M⁻¹] | Ka [8] [M⁻¹] | Ka [9] [M⁻¹] | Ka [10] [M⁻¹] | binding result [11]
B1 | 8.47e+09 | 8.19e+09 | 1.01e+10 | 8.08e+09 | 9.4e+09 | 7.03e+09 |  |  |  |  | 
B2 | 1.9e+09 | 1.76e+09 | 1.8e+09 | 1.37e+09 | 1.72e+09 | 1.13e+09 |  |  |  |  | 
B3 | 1.37e+09 |  | 4e+07 | 2.05e+09 | 1.38e+09 | 6.4e+08 | 1e+07 | 4.4e+08 | 6e+07 |  | 
B4 |  | 2.42e+09 | 4.75e+09 |  |  |  |  | 5.22e+09 | 2.7e+08 | 1e+07 | 
B5 | 3.93e+09 |  | 3.6e+09 | 8.7e+08 |  | 3.92e+09 |  |  | 2e+07 |  | no binding
B6 | 3.1e+08 | 3e+08 | 2.8e+08 | 3.6e+08 | 2.9e+08 | 3.2e+08 |  |  |  |  | 
B7 | 1.56e+09 | 1.51e+09 | 1.26e+09 | 1.52e+09 | 1.4e+09 | 1.14e+09 |  | 2.9e+08 |  |  | 
